From US20250295792A1 (ZONHON BIOPHARMA INSTITUTE, published 2025)
Where no end group is shown, it is not given here. [ ]: non-standard residue; d: D form. 2Thi = N[C@@H](Cc1cccs1)C(=O)O

molecular target: B2 receptor; test: cell-based or functional assay
Sequence (P30411 whole entry): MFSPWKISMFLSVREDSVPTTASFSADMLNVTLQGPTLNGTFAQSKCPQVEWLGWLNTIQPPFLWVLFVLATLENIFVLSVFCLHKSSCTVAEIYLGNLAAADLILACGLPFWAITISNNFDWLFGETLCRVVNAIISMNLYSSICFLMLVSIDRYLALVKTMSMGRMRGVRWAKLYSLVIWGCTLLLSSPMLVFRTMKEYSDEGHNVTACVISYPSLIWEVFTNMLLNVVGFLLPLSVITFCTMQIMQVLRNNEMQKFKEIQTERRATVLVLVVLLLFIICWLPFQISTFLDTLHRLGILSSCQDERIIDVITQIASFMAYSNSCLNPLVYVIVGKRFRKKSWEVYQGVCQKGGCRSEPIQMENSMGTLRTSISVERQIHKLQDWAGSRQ

| Binder | EC50 value (B2 receptor reporter gene assay, FIG. 4a) | fold activity against Lys-BKm01-YNHS10K (B2 receptor reporter gene assay) |
| --- | --- | --- |
| KRPPGXSPFR ({THI} (β-2-thiophenylalanine) at position 6; N-terminal single modification with M-SPA-10K (straight-chain mPEG succinimidyl propionate, about 10 kDa)) [Lys-BKm01-SPA10K] | 90.8 mg/L | ~4 fold |
| KRPPGXSPFR ({THI} (β-2-thiophenylalanine) at position 6; N-terminal single modification with M-YNHS-10K (branched-chain mPEG succinimidyl acetate, about 10 kDa)) [Lys-BKm01-YNHS10K] | 347 mg/L | – |

molecular target: B2 receptor; test: cell-based or functional assay; remark: another data set of the same source

| Binder | Relative affinity activity (B2-NFAT-CHO-K1 luciferase reporter gene assay, from EC50) |
| --- | --- |
| KRPPG[2Thi]SPFRRPPG[2Thi]SPFR [Lys-BKm12] | 100% |
| KRPPGFSPHR [Lys-BKm04] | < 10% |
| KRPPGFSPFR [Lys-BK (wild-type lysyl bradykinin)] | 100% |
| KRPPGXSPFRR ({THI} (β-2-thiophenylalanine) at position 6: KRPPG{THI}SPFRR) [Lys-BKm06] | 90% |
| KRPPGXSPXR ({THI} (β-2-thiophenylalanine) at positions 6 and 9: KRPPG{THI}SP{THI}R) [Lys-BKm07] | < 10% |
| KRPPGXSPFR ({THI} (β-2-thiophenylalanine) at position 6: KRPPG{THI}SPFR) [Lys-BKm01] | 100% |
| KRPPG[2Thi]SPFRKRPPG[2Thi]SPFR [Lys-BKm14] | 100% |
| KRPPGHSPFR [Lys-BKm03] | < 10% |
